Read-outs that look alike come from different tables or passages of the source. Marks after values point to notes of the source that are not given here.
Assays:
[1] = Activity of crude culture supernatants from bioreactor; assay type: biochemical; settings: pNP-dodecanoate
[2] = Specific activity of purified enzymes (standard esterase assay); assay type: biochemical
Protocol: In summary, using different techniques for enzyme purification, pure enzyme preparations were obtained and tested for their activity towards a standard esterase substrate, pNP-palmitate. Enzymatic activities of the purified variants are summarized below:
(§1) Esterase activity was determined by monitoring the formation of para-nitrophenol (pNP) at 410 nm from various pNP-esters using a Beckman UV spectrophotometer (model DU 640). Substrates were completely dissolved in 2-propanol (8 mM) and were then added to 50 mM Tris/HCl buffer pH 8.0 to give a final substrate concentration of 0.8 mM. The reaction (1 mL) was started by adding an appropriate amount of enzyme. One enzyme unit (U) was defined as the amount of enzyme that produced 1 μmol of product (pNP) per min; specific activity was expressed as U/mg protein. A molar extinction coefficient of 15 mM^−1 cm^−1 was used for the calculation.

[3] = Circular dichroism spectroscopy, melting temperature and refolding; assay type: physicochemical
Protocol: CD spectra were recorded using a Jasco™ J-815 spectrometer operating with the Spectra™ Manager software. Temperature was controlled using a Jasco™ PFD-452S peltier unit. Previously purified protein solutions were adjusted to 0.15 mg/mL (if quantities allowed for) and CD spectra were recorded between 190 and 250 nm using a Quartz cuvette (ID=0.1 cm). Blanks containing buffer only were prepared and used as baseline. Temperature dependent protein unfolding was monitored at 222 nm with thermo profiles ranging from 20 up to 90° C. (2° C. min-1). Samples were kept for 5 min at the respective maximum temperature and protein refolding was monitored using the same conditions as above reversing the thermo profiles. Thermodynamic parameters (Tm, ΔH, ΔS, ΔG) for the folding/unfolding process, if applicable, were calculated using the Spectra™ Manager software.

[4] = Enzyme substrate profiles, esterase assays; assay type: biochemical; settings: highest activity towards a specific substrate set to 100%
Protocol: as §1

[5] = Enzymatic activity in the presence of organic solvents; assay type: biochemical; settings: buffer only = 100%
Protocol: Enzyme activity in various organic solvents was studied over a concentration range of 1-30% at room temperature. pNP-palmitate was completely dissolved in 2-propanol (8 mM) and then added to 50 mM Tris/HCl buffer pH 8.0 containing up to 30% organic solvent to give a final substrate concentration of 0.8 mM. The reaction was started by addition of enzyme and the formation of pNP was assayed as described above in Example 20.1.

pH dependence of enzymes = assay type: biochemical; settings: for Relative activity (%): highest activity = 100%
Protocol: The influence of different pH values (from 5.5 to 11) on the activities of the purified enzymes was examined in three buffer systems (sodium acetate, sodium phosphate, and Tris-HCl) at room temperature using pNP-palmitate (see esterase assay in Example 20.1) as a substrate at a final substrate concentration of 0.8 mM.

[6] = Stability in the presence of hydrogen peroxide; assay type: physicochemical
Protocol: as §1
Purified cutinases were incubated at room temperature in the presence of 0, 30, 100, 300, 1500, and 3000 ppm of hydrogen peroxide. Residual enzyme activity was assayed (see Example 20.1) after 1, 2, 3, and 7 days of incubation.

[7] = assay type: biochemical, Petromyces albertensis; settings: for Residual ochratoxin A (%): 5 ppm Ochratoxin A, 37° C., relative to incubation without enzyme
Protocol: The enzymes purified in Example 18 were tested for their ability to degrade the mycotoxin Ochratoxin A. In general, the mycotoxin was incubated with different concentrations of the enzyme, and the remaining mycotoxin concentration, as well the respective degradation products, were monitored by LC-MS over time (where possible/applicable).
Reactions were performed in 1 mL volumes in glass HPLC vials comprising the mycotoxin to be analyzed and the enzyme to be tested. For Ochratoxin A (Petromyces albertensis, 01877 Sigma), 50 μL of a 100 ppm stock solution in methanol (final concentration of 5 ppm) was added to 910 μL of distilled water and 40 μL of the enzyme to be tested. In control reactions, the volume of enzyme was substituted with distilled water. The reactions were incubated in an Eppendorf thermomixer at 37° C. with shaking at 750 rpm. 100 μL samples were withdrawn at 1, 4 and 24 h for chromatographic analysis.
Mycotoxin analysis was carried out using a Shimadzu LCMS-2020 equipped with a UV/vis detector. Chromatographic separation of 10 μL injected sample was carried out at 30° C. on a Kinetex 2.6 μm XB-C18 column 100 Å (50×2.1 mm) using a binary gradient. For Ochratoxin A, eluent A consisted of water and eluent B consisted of acetonitrile and the UV detection wavelength was 360 nm.
The five enzymes tested were screened for their ability to degrade 5 ppm (5,000 ppb) Ochratoxin A at 37° C.

B1: KrCUT: mature Kineococcus radiotolerans cutinase, amino acids 34-294 of SEQ ID NO: 1; SEQ ID NO: 6 (protein)
chain: ATCSDVDVVFARGTGETPGLGVVGGPFVRSLTGELSDRTVTSHAVDYAASSSQASAGPGATAMSAHVREVAAACPSTRFVLGGYSQGATVTDIALGIRTGTTTGTPVPAELAGRVAAVVVFGNPLGLSGRTIATASSTYGPKSKDYCNSSDSVCGSAPKTGTGGHLSYASNGSTTDGARFAAGLVRAAGTPTTPTPTPTPTPVPTTCVRDSTRDHVAADRAVSLYGRAYARGSRDSLGATSSYNVVSLQQVEGGWRLVTAC
modifications: Kineococcus radiotolerans; (1)..(261) KrCUT (lacking residues 1-33 of ssKrCUT)
activity of crude culture supernatant [1]: 1.6 U/mL
Enzymatic activity of the purified variant ([2]; pNP-palmitate): 197 ± 3 U/mg
Spec. Act. (U/mg) ([2]; towards pNP-palmitate (standard assay)): 197 ± 3 U/mg
refolding ([3]; CD at 222 nm): refolding to some extent
midpoint transition temperature of refolding ([3]; CD at 222 nm, high to low temperature): 42.7 °C
melting temperature (Tm) ([3]; CD at 222 nm, unfolding): 50.7 °C
Tm (° C.) ([3]; estimated using CD-spectroscopy): 51 ± 1 °C
Relative activity, pNP-acetate (C2) [4]: 2%
Relative activity, pNP-butyrate (C4) [4]: 26 ± 2%
Relative activity, pNP-caprylate (C8) [4]: 25 ± 3%
Relative activity, pNP-decanoate (C10) [4]: 25 ± 3%
Relative activity, pNP-myristate (C14) [4]: 100* %
Relative activity, pNP-palmitate (C16) [4]: 98 ± 6%
Relative enzymatic activity (%) ([5]; 2-Propanol 5% (v/v)): 55 ± 11%
Relative enzymatic activity (%) ([5]; 2-Propanol 10% (v/v)): 8%
Relative enzymatic activity (%) ([5]; Acetone 1% (v/v)): 71 ± 2%
Relative enzymatic activity (%) ([5]; Acetone 5% (v/v)): 47 ± 7%
Relative enzymatic activity (%) ([5]; Dimethyl sulfoxide (DMSO) 10% (v/v)): 106 ± 4%
Relative enzymatic activity (%) ([5]; Dimethyl sulfoxide (DMSO) 20% (v/v)): 14 ± 2%
Relative enzymatic activity (%) ([5]; Dimethyl sulfoxide (DMSO) 30% (v/v)): 2%
Relative enzymatic activity (%) ([5]; Dimethylformamide (DMF) 5% (v/v)): 55 ± 11%
Relative enzymatic activity (%) ([5]; Methanol 10% (v/v)): 91 ± 12%
Relative enzymatic activity (%) ([5]; Methanol 20% (v/v)): 8%
pH opt. (pH dependence of enzymes): 8.5
Relative activity (%) (pH dependence of enzymes; pH 6.5, sodium phosphate buffer): 22 ± 1%
Relative activity (%) (pH dependence of enzymes; pH 7.0, sodium phosphate buffer): 53 ± 2%
Relative activity (%) (pH dependence of enzymes; pH 7.5, sodium phosphate buffer): 72 ± 4%
Relative activity (%) (pH dependence of enzymes; pH 8.0, Tris/HCl): 87 ± 6%
Relative activity (%) (pH dependence of enzymes; pH 8.5, Tris/HCl): 100* %
Relative activity (%) (pH dependence of enzymes; pH 9.0, Tris/HCl): 96 ± 4%
Relative activity (%) (pH dependence of enzymes; pH 9.5, Tris/HCl): 76 ± 7%
Relative activity (%) (pH dependence of enzymes; pH 10, Tris/HCl): 37 ± 5%
Relative activity (%) after exposure to hydrogen peroxide ([6]; H2O2 30 ppm, Day 0): 100 ± 9%
Relative activity (%) after exposure to hydrogen peroxide ([6]; H2O2 30 ppm, Day 1): 90 ± 6%
Relative activity (%) after exposure to hydrogen peroxide ([6]; H2O2 30 ppm, Day 2): 75 ± 3%
Relative activity (%) after exposure to hydrogen peroxide ([6]; H2O2 30 ppm, Day 3): 75 ± 8%
Relative activity (%) after exposure to hydrogen peroxide ([6]; H2O2 30 ppm, Day 7): 76 ± 2%
Relative activity (%) after exposure to hydrogen peroxide ([6]; H2O2 100 ppm, Day 0): 104 ± 6%
Relative activity (%) after exposure to hydrogen peroxide ([6]; H2O2 100 ppm, Day 1): 91 ± 6%
Relative activity (%) after exposure to hydrogen peroxide ([6]; H2O2 100 ppm, Day 2): 88 ± 6%
Relative activity (%) after exposure to hydrogen peroxide ([6]; H2O2 100 ppm, Day 3): 76 ± 2%
Relative activity (%) after exposure to hydrogen peroxide ([6]; H2O2 100 ppm, Day 7): 66 ± 2%
Relative activity (%) after exposure to hydrogen peroxide ([6]; H2O2 300 ppm, Day 0): 102 ± 4%
Relative activity (%) after exposure to hydrogen peroxide ([6]; H2O2 300 ppm, Day 1): 87 ± 2%
Relative activity (%) after exposure to hydrogen peroxide ([6]; H2O2 300 ppm, Day 2): 74 ± 1%
Relative activity (%) after exposure to hydrogen peroxide ([6]; H2O2 300 ppm, Day 3): 63 ± 2%
Relative activity (%) after exposure to hydrogen peroxide ([6]; H2O2 300 ppm, Day 7): 49 ± 4%
Relative activity (%) after exposure to hydrogen peroxide ([6]; H2O2 1,500 ppm, Day 0): 102 ± 10%
Relative activity (%) after exposure to hydrogen peroxide ([6]; H2O2 1,500 ppm, Day 1): 80 ± 4%
Relative activity (%) after exposure to hydrogen peroxide ([6]; H2O2 1,500 ppm, Day 2): 67 ± 4%
Relative activity (%) after exposure to hydrogen peroxide ([6]; H2O2 1,500 ppm, Day 3): 44 ± 2%
Relative activity (%) after exposure to hydrogen peroxide ([6]; H2O2 1,500 ppm, Day 7): 11 ± 1%
Relative activity (%) after exposure to hydrogen peroxide ([6]; H2O2 3,000 ppm, Day 0): 98 ± 9%
Relative activity (%) after exposure to hydrogen peroxide ([6]; H2O2 3,000 ppm, Day 1): 60 ± 2%
Relative activity (%) after exposure to hydrogen peroxide ([6]; H2O2 3,000 ppm, Day 2): 33 ± 1%
Relative activity (%) after exposure to hydrogen peroxide ([6]; H2O2 3,000 ppm, Day 3): 20 ± 4%
Relative activity (%) after exposure to hydrogen peroxide ([6]; H2O2 3,000 ppm, Day 7): no activity was detected
Residual ochratoxin A (%) ([7]; 1 h): 63%
Residual ochratoxin A (%) ([7]; 4 h): 17%
Residual ochratoxin A (%) ([7]; 24 h): 7%
Ochratoxin A Degradation per U and h ([7]; per 1 U of enzyme (pNP standard test) and hour at 37° C.): 0.02 µmol

Source: US10227575B2, “Multi-domain enzymes having cutinase activity, compositions comprising same and uses thereof” (OZYMES, priority 2015, dated 2019)
